Measured values as given in patent US20050239072.

Biological target: human recombinant prion protein hrPrP (PrP23-231) (Homo sapiens) (UniProt P04156)
Test: FP filter
[1] = no tRNA, 250 mM NaCl, 2 mM MgCl2, 37 C

With MDV (244 nt) the Kd [1] was 7.6 nM and the Kd (with tRNA competitor) was 170 nM.

Substance MNV (86 nt) has a Kd [1] of 38 nM and a Kd (with tRNA competitor) of 1000 nM.
